Results on 2 substances are retold here after patent publication US6140129.

The series concerns FLP recombinase (Saccharomyces cerevisiae (2-micron plasmid)). Kind of series: cell_activity.

In the case of E. coli chromosome without FRT, where the note is “no chromosomal FRT, 4 experiments”, the activity (Tet^R colonies per trial) stood at 0. In addition, the activity (colonies per plate) (non-target strain with IPTG, 0 without) was 1. With minimal wild-type FRT (from pJFS36), where the note is “lambda FRT36 integration at lacZ-FRT with IPTG (39 without), lacY-FRT 206 with and 247 without”, the activity (colonies per plate) turned out to be 139.
